Test results as given in the supplement of paper PMC12042874.
± gives the uncertainty stated by the source.

Experiment: amyloid nucleation score (Sup35N fusion, yeast selection) (log enrichment); library NNK2; higher = more nucleation; inactive = no reads after selection
Procedure, shortened: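 Peptides of 20 random codons fused to Sup35N were expressed in psi-negative yeast, induced 24 hours with 100 μM copper sulfate, then grown 7 days at 30°C on medium lacking adenine and uracil. Input and output plasmid inserts were Illumina-sequenced. Nucleation score is the DiMSum log enrichment of output over input reads, centred on the mode score of non-aggregating sequences, excluding sequences with under 100 input reads. Random libraries had three technical output replicates.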

Row | Substance | amyloid nucleation score
1 | LRDLLLVRTSSCDSYMWLSP | -0.254 ± 1
2 | LRFLLPPTMTVGMKFSSDAG | 0.062 ± 0.79
3 | LRFNDFA | inactive
4 | LRGLCRVHWRSERAQSMRPG | 0.892 ± 0.45
5 | LRGYRGFPYCDLYFVCMLRN | -1.06 ± 1.1
6 | LRLDLRMPQRYRLGDTFVSS | 0.243 ± 0.24
7 | LRLIDNYMGSSRMMS | inactive
8 | LRMYCRVTWSISYVSSSPVL | 2.83 ± 0.087
9 | LRNVRMYDLSLWSRGTRCEG | 0.88 ± 0.28
10 | LRSCKALGGGVTRPTGYS | 0.709 ± 0.47
11 | LRSCRMSDDMK | 1.18 ± 0.34
12 | LRSDESRYPAFHRESSVRSR | 0.377 ± 0.3
13 | LRTIEASLMGVSNLKKWSFI | -0.299 ± 0.48
14 | LRTVDVAR | -0.654 ± 0.55
15 | LRVGSRKVRVWSLVSFCLVV | -0.271 ± 0.42
16 | LRVRGRFLNSWSASPRSSDY | 3.58 ± 0.053
17 | LSCSILRPVWLYISLIVIID | -1.28 ± 0.48
18 | LSDRRFKDLMSTFRNAATYF | 6.34 ± 0.047
19 | LSFKRDELVNLNRFSVQFAQ | -0.694 ± 0.38
20 | LSGKT | 0.312 ± 0.54
21 | LSGWDVHTSSTSVFRNNFIY | inactive
22 | LSHKSVRAKENPIQSSQCES | 1.2 ± 0.33
23 | LSHLISVVRRVRKYSYGEVV | 0.389 ± 0.64
24 | LSHSDVKRALKWNCFPIGVC | -0.158 ± 0.28
25 | LSIAYFSSAWCFYL | 6.216 ± 0.038

Row | Substance | amyloid nucleation score
26 | LSIGSQAI | 0.501 ± 0.38
27 | LSIRYLVYEPN | 0.27 ± 0.36
28 | LSKGTPSQSMMSSLLSINTL | -0.159 ± 1
29 | LSKLYTLVRNV | -0.576 ± 0.63
30 | LSLFHPCLL | -0.182 ± 0.3
31 | LSLLRFLNCMRYCLCIGLAS | 4.14 ± 0.093
32 | LSMDRESFINERWSSQRVMV | -0.02 ± 0.5
33 | LSMQKCSLIIISRCGRSRNM | 3.77 ± 0.057
34 | LSNLWSSSF | inactive
35 | LSRLN | -0.055 ± 0.53
36 | LSRNTYWYGVEIGLVLSSCT | 0.161 ± 0.24
37 | LSRQGRLESVKDGRSMWVSG | -0.283 ± 1.1
38 | LSRRAINHFYNIITEVAGRG | inactive
39 | LSSGIMSGCEGGAWCCH | 0.605 ± 0.66
40 | LSSPDVPNIHAALRTRTGWA | -0.328 ± 0.27
41 | LSSPLNLQHVFPLTWMYLC | -0.742 ± 1.1
42 | LSSVMN | -0.565 ± 0.33
43 | LSVCGSWDRRRFGGYDLWCT | 0.903 ± 0.48
44 | LSVCVRHEDGGSIAVECGS | 0.242 ± 0.77
45 | LSWITPIKIGISFSLALIFT | -0.974 ± 0.49
46 | LSWRFFLSCWN | inactive
47 | LSWYLTYTRLTSLVG | -0.097 ± 0.42
48 | LSYRTCYRNMP | 0.328 ± 0.46
49 | LTACEQSWLKILLLMEMQTL | -0.137 ± 0.54
50 | LTFVCVV | 0.048 ± 0.33

Row | Substance | amyloid nucleation score
51 | LTIPEMNQGLQLSLSIHAQM | -0.902 ± 0.63
52 | LTIYRSHDVRM | 3.88 ± 0.043
53 | LTKVWLPCAFVVSSFDQYQH | 0.764 ± 0.41
54 | LTLYSGVRCFSSYLP | 0.012 ± 0.41
55 | LTMQKWLF | 0.28 ± 0.62
56 | LTSHLYIYGMW | -0.766 ± 0.48
57 | LTSNTNSRMLRCSIMVQQS | -0.087 ± 0.45
58 | LTSSRRF | 5.724 ± 0.037
59 | LTVLFVLTVCFNVAMGCCLS | -0.223 ± 0.76
60 | LTWICEFGRSFFSWICVMIG | 0.856 ± 0.14
61 | LVCGHRPNVAAGTQGDCGRW | 1.04 ± 0.32
62 | LVCSKSAGEWAYSRFGVLDL | -0.444 ± 0.44
63 | LVDILLMMYWMWQ | 0.373 ± 0.45
64 | LVFGVLQVCVLCSVTDNLGA | 0.159 ± 0.35
65 | LVFRMQHSLTHGLLSEPGNR | 2.28 ± 0.17
66 | LVGKFNWCEVQKKCSRFRCR | -0.29 ± 0.62
67 | LVGLISRNKVVRTGIENNKD | -0.059 ± 0.55
68 | LVHFVVSALKT | inactive
69 | LVHMLCQ | 0.893 ± 0.24
70 | LVILAGTVRIVRHGLVALQL | 0.592 ± 0.22
71 | LVKCHANGCFPYLSTIFIRP | 0.156 ± 0.41
72 | LVKMTLGCATSMLRCLMLSV | 0.457 ± 0.24
73 | LVLIIK | 5.96 ± 0.075
74 | LVMWNRCSIKRVNREMVHSF | 0.538 ± 0.3
75 | LVNNGINPPFGPSSLSRGMK | -0.31 ± 0.4

Row | Substance | amyloid nucleation score
76 | LVQLMMMFWKRGLRDSANMV | -1.13 ± 0.78
77 | LVREWHRKNSSGPRIVVRRQ | 4.18 ± 0.079
78 | LVRPILLYYSMLV | inactive
79 | LVSFKGKVLFFIS | 1.86 ± 0.13
80 | LVSLVQRYLDHRPDNKM | -0.05 ± 0.48
81 | LVSVVWTKCRRGQRGVLVAS | 1.06 ± 0.38
82 | LVTLFESGFFRRLTSMDGLF | 0.115 ± 0.51
83 | LVVLD | -0.262 ± 0.79
84 | LVVLNYGVIHNMNSWPWRWG | 9.861 ± 0.047
85 | LVVVMWR | 2.82 ± 0.19
86 | LVVVPTTGRVADRQWVMRNG | 0.86 ± 0.2
87 | LWCSDCISTEIIHNQRFA | -0.152 ± 1
88 | LWIYRVAYFGFLNYKFSVFL | -1.09 ± 0.42
89 | LWLADDSATRV | 0.814 ± 0.19
90 | LWNVD | 2.94 ± 0.19
91 | LWSRVVVWQDRYVV | inactive
92 | LWTHGSYSVLRLIEPVGAQE | 0.971 ± 0.51
93 | LYCRTPFCTMTLELMKMTL | 0.128 ± 0.24
94 | LYDGSVRQWTDEHWWVMSGG | 0.988 ± 0.28
95 | LYDVAQDEPLVSRMGLFDPR | 3.46 ± 0.069
96 | LYEMDSKC | -0.603 ± 1.1
97 | LYFRYWVMDSQASNFHRCRG | -0.14 ± 1
98 | LYHEDRSVISRLVSSRLKCK | 0.389 ± 0.38
99 | LYIMDLFSTAWFDMLYVKGR | -1.45 ± 0.78
100 | LYKSGA | -0.574 ± 0.28

Row | Substance | amyloid nucleation score
101 | LYLTGNF | -0.199 ± 0.76
102 | LYLWWILIYDHMAPKEW | -0.47 ± 0.63
103 | LYNVVSNTVKYCIFPC | 7.135 ± 0.043
104 | LYVRRYNWSHVGFHFCGLDT | -0.384 ± 0.79
105 | LYVSFDYGAQRVHYSTAYVK | -0.013 ± 0.48
106 | LYWKSGEHIWYLGSILGCVG | 0.593 ± 0.56
107 | LYWRKTVITIEWSCSGGNLR | 0.278 ± 0.27
108 | LYYMHNE | -0.652 ± 0.64
109 | MAILVGSFDVDSNCVDSWGV | 0.027 ± 0.74
110 | MASGRWYSNSTYGDCMGGIA | -0.321 ± 1
111 | MAYWESTVIYYIDWEWDSLV | -1.16 ± 0.39
112 | MCFSPCCRWPRIRQEDQG | 0.531 ± 0.64
113 | MCLYVRLWFMSPVSLDSSAL | -0.512 ± 0.55
114 | MCMLTLRLNQLYMAIMHG | 0.603 ± 0.36
115 | MDHCTFYIRGMMPRMYGCTK | -0.711 ± 0.44
116 | MDLCINNVWWEAKTSSLGLL | inactive
117 | MDVMVDW | -0.343 ± 0.63
118 | MDYNLIKCAPWT | inactive
119 | MEQELMFREWLW | -0.284 ± 0.48
120 | MFARDNRFPYCDDTRSDSSF | 0.178 ± 0.45
121 | MFERW | -0.184 ± 0.56
122 | MFMANGSWTYEEVIE | 1.47 ± 0.16
123 | MFMTVRWNVAINLELFTVID | -0.34 ± 0.39
124 | MFNVLIGVGRAGVNNPGHSL | 0.343 ± 0.64
125 | MFNYINYYSYHFEFSKCFVR | 2.26 ± 0.14

Row | Substance | amyloid nucleation score
126 | MFVFRCVVRTCRSDHENDHS | 4.987 ± 0.049
127 | MFYLS | -0.476 ± 0.37
128 | MGAVESGKSRSMCAVLAWSE | 1.02 ± 0.41
129 | MGCLTVVRNLEFNRVCGRGD | -0.669 ± 0.49
130 | MGENVLGRQGVLPKGEI | 0.192 ± 0.45
131 | MGEYFSMALYAPYTWVFMSV | -1.55 ± 1
132 | MGIMPQITLDLNLLYLGKVL | 0.14 ± 0.35
133 | MGLVDGMCMFDFDLVLAVVG | inactive
134 | MGQTVSRPWQAGSLYGANPC | 0.926 ± 0.45
135 | MGRTHRTTTPGSRFYTSTAF | -0.57 ± 1
136 | MGRTMILRSLDQMMVITVGL | -0.598 ± 0.36
137 | MGSNAWVLNNACHGLFTSAS | 0.386 ± 0.35
138 | MHASGHWYMKRSSLGADSPV | 0.815 ± 0.18
139 | MHCYSIGFRLMRSANMLSCY | 0.394 ± 0.33
140 | MHGREFWRCTSWSSLVNLGV | 0.998 ± 0.19
141 | MHVDVV | -0.352 ± 1
142 | MIFLYCYIRIEKKVS | -0.927 ± 0.36
143 | MIHQIELNDIGWVLTTFCNE | -0.536 ± 1
144 | MIRLRIVYGTLDMYGLQMYS | 1.46 ± 0.27
145 | MIRWSRRTCRKGLTECTCST | 1.52 ± 0.33
146 | MIVFLYRLY | -0.061 ± 0.39
147 | MIVWWNYCGSAVPRKIL | -0.586 ± 1.1
148 | MKCWASPGWTQIQMEPKEGS | 0.064 ± 0.26
149 | MKFKYTNHVYRIDCRSAT | 0.551 ± 0.38
150 | MKFQPETVCYFRGYWLDRQY | -0.251 ± 0.39

Row | Substance | amyloid nucleation score
151 | MKLVECNMDGCDTNTSFGWL | -0.884 ± 0.78
152 | MKYSSFINLLPTTWQHYTMN | -0.119 ± 0.65
153 | MLANTYDSEPSRHRCVGKPI | 0.754 ± 0.44
154 | MLDVVARNH | 1.52 ± 0.3
155 | MLFSRFRNICG | -0.08 ± 1
156 | MLKIHFLPLLGQWTLCRNPL | 1.28 ± 0.43
157 | MLLHMWCWIGPGKYLSVTKF | inactive
158 | MLNARELGETNKMLIVWVYL | 0.441 ± 0.22
159 | MLRPAAHDGVKASYVKFKI | 0.489 ± 0.45
160 | MLSDSLLDCRVLLMVFGRET | 3.81 ± 0.051
161 | MLSTSDPVGFGRFCQNDWLN | 0.256 ± 0.55
162 | MLVLSTGHPRGFWTRVVCCD | 0.092 ± 1.1
163 | MLVMTMLWKMFSVAG | 0.432 ± 0.26
164 | MLYLCMFTERVDDNTFALYR | inactive
165 | MMAIHVRMLARQSFGRICFM | 3.45 ± 0.098
166 | MMLSLANNHGSL | 0.174 ± 0.28
167 | MMRVTIPGVVLSCWPFGSTR | 3.09 ± 0.11
168 | MNIFKYFQSSSETMLTLKCT | -0.724 ± 1
169 | MNLPKFNSYLMDSANARASP | 0.58 ± 0.19
170 | MNNDSAFIEYTGHQWIWGVR | 0.269 ± 0.26
